# Patent US20250002610A1 (Genmab, published 2025)
# T1: human FAPα (Fibroblast activation protein alpha), cell surface expressed (human, UniProt Q12884 1-760)
# T1 construct: Endogenous on human lung fibroblasts and CAFs
# T1 sequence: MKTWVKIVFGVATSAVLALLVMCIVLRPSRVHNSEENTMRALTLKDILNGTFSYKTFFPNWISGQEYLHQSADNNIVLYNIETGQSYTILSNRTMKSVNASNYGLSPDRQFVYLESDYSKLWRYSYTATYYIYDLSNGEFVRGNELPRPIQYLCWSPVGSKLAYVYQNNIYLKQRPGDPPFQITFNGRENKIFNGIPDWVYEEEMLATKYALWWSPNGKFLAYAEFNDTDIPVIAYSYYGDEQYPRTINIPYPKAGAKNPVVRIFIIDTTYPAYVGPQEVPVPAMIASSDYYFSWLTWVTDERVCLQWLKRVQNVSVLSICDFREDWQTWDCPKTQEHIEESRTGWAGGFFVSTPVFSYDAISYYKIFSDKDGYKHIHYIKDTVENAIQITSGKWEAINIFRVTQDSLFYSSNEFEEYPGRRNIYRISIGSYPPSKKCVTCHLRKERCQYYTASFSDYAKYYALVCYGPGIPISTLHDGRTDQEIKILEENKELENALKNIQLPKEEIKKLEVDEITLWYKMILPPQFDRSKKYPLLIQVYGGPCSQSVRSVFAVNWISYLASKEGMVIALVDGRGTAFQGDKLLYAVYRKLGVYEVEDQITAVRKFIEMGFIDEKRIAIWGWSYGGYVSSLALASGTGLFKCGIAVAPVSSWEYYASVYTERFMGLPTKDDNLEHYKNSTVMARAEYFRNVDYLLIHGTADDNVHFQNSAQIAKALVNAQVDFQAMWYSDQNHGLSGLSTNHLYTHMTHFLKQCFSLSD
# T2: human DR4 (Death Receptor 4), cell surface expressed on human tumor cell lines (human, UniProt O00220 24-468)
# T2 construct: also called TNFRSF10A; TRAIL-R1
# T2 sequence: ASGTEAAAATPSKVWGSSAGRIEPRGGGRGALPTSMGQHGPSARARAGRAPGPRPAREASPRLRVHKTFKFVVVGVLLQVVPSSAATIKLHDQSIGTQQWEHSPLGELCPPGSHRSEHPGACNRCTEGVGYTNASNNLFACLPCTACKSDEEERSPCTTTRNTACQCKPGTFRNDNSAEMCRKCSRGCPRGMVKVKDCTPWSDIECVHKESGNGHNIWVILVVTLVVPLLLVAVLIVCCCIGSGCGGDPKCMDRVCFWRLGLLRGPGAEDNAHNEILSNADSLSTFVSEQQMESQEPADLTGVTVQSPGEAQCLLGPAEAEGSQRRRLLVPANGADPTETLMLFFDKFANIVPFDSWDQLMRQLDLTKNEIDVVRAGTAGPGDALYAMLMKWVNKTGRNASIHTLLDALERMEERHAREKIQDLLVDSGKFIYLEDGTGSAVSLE
# Legend:
# [1] = target: T1, human FAPα (Fibroblast activation …); assay: flow cytometry, human lung fibroblasts, n = 1
# Procedure: (§1) Human lung fibroblasts and CAFs (50,000 cells/well) were seeded in 96-Well round bottom plates (Greiner Bio-one, Cat #650101). Antibody dilutions were prepared using fluorescence-activated cell sorting (FACS) buffer, consisting of phosphate buffer saline (PBS, Lonza, Cat #BE17-517Q)+1% Bovine Serum Albumin (BSA, Roche, Cat #10735086001)+0.02% Sodium Azide (Bio-World, Cat #41920044-3). Plates were centrifuged, supernatant was removed, cells were resuspended in 50 μL of human Fc Block (BD, Cat #564220, diluted 1:100 in FACS buffer) and 50 μL of viability stain TO-PRO-3 Iodide (Thermo Fisher, Cat #T3605, diluted 1: 25,000 in FACS buffer), and incubated for 15 min at 4° C. Plates were washed three times with FACS buffer. Plates were centrifuged, supernatant was removed, cells were resuspended in 50 μL of antibody dilutions (concentration range 90-0.0005 μg/mL, three-fold dilution steps using FACS buffer) of BisG1-FAPα-FERL/DR4-FERR, BisG1-FAPα-FERL/b12-FERR, BisG1-b12-FERL/b12-FERR (top six concentrations only for CAFs culture) or IgG1-FAPα-FERL (top four concentrations only for CAFs culture) and incubated for 30 min at 4° C. Cells were washed three times with FACS buffer and resuspended in 50 μL of Fluorescein isothiocyanate (FITC)-labeled polyclonal antibody goat anti-mouse IgG1 (Jackson Immuno Research, Cat #109-096-097, diluted 1:100 in FACS buffer). After 30 min incubation at 4° C., cells were washed twice with FACS buffer and resuspended in FACS buffer. Antibody binding to viable cells (TO-PRO-3 negative) was analyzed by flow cytometry on a FACSCelesta™ (BD biosciences) and data were processed using FlowJo_v10.8.1 (FlowJo LLC). Geomean fluorescence intensity, gMFI, was determined and visualized using GraphPad Prism. Binding curves were analyzed using nonlinear regression analysis. The concentration (pg/mL) at which 50% of the maximal effect was observed (EC₅₀) was derived from the fitted curves.
# (§2) Binding of FAPα-targeting monoclonal antibody clones, IgG1-FAPα-FEAL and IgG1-FAP5-FEAL, and bispecific antibodies carrying a binding arm derived from the two FAPα-binding clones (BisG1-FAPα-FEAL/b12-FEAR and BisG1-FAP5-FEAL/b12-FEAR) to human lung fibroblasts, which endogenously express FAPα, was compared and analyzed by flow cytometry.
# [2] = target: T2, human DR4 (Death Receptor 4), cell …; assay: flow cytometry, MDA-MB-231 cells, N = 1
# [3] = target: T2, human DR4 (Death Receptor 4), cell …; assay: flow cytometry, MDA-MB-231 cells, average ± SEM
# [4] = target: T2, human DR4 (Death Receptor 4), cell …; assay: flow cytometry, MDA-MB-231 cells, N = 2
# [5] = target: T1, human FAPα (Fibroblast activation …); assay: flow cytometry, human lung fibroblasts, n = 2
# Procedure: as §1, with “After 30 min incubation at 4° C., cells were washed twice with FACS buffer and resuspended in FACS buffer.” left out, “The concentration (pg/mL) at which 50% of the maximal effect was observed (EC₅₀) was derived from the fitted curves.” left out
# as §2
Binder,EC50 [1] [µg/mL],EC50 [2] [µg/mL],Max MFI (at 90 µg/mL) [2] [MFI],EC50 [3] [µg/mL],Max MFI (at 90 µg/mL) [3] [MFI],EC50 [4] [µg/mL],Max MFI (at 90 µg/mL) [4] [MFI],EC50 [5] [µg/mL]
IgG1-FAPα-FEAL (antibody) heavy: EVQLLESGGGLVQPGGSPRLSCEASGFTFSSYALSWVRQAPGKGLEWVSAISGSGGGRYYADSVKGRFTISRDNSKNTLFLQMNSLRAEDTAVYYCAKEGYSSSGTYWDHWGQGTLVTVSSASTKGPSVFPLAPSSKSTSGGTAALGCLVKDYFPEPVTVSWNSGALTSGVHTFPAVLQSSGLYSLSSVVTVPSSSLGTQTYICNVNHKPSNTKVDKRVEPKSCDKTHTCPPCPAPEFEGGPSVFLFPPKPKDTLMISRTPEVTCVVVAVSHEDPEVKFNWYVDGVEVHNAKTKPREEQYNSTYRVVSVLTVLHQDWLNGKEYKCKVSNKALPAPIEKTISKAKGQPREPQVYTLPPSREEMTKNQVSLTCLVKGFYPSDIAVEWESNGQPENNYKTTPPVLDSDGSFLLYSKLTVDKSRWQQGNVFSCSVMHEALHNHYTQKSLSLSPG light: AIQMTQSPSSVSASVGDRVTITCRASQGVSSWLAWYQQKPGRAPKLLIYVASTLQSGVPSRFSGSGSGTDFTLTINSLQPEDFATYYCQQANSFPPTFGQGTRLEMKRTVAAPSVFIFPPSDEQLKSGTASVVCLLNNFYPREAKVQWKVDNALQSGNSQESVTEQDSKDSTYSLSSTLTLSKADYEKHKVYACEVTHQGLSSPVTKSFNRGEC,0.014,–,–,–,–,–,–,–
"IgG1-DR4-T1014A04-FEAR (antibody, V domains shown, Prior art DR4 clone (US 7,361,341 B2)) VH: EVQLVQSGADVKRPGASVKVSCKISGDSFNAYFIHWVRQAPGQGLEWMGWFNPDSGTADSAQKFHGRVTMTRDTSSSTAFLELSRLRSDDTAVYYCVRQHRGNTFAPWGRGTMVTVSS VL: QSVLTQPPSASGSPGQSVTISCTGTTSDVGGYNYVSWYQQHPGKAPKLMIYGVNQRPSGVPDRFSGSKSGNTASLTVSGLQAEDEADYYCSSYAGSNNWVFGGGTKLTVLG",–,0.45,953,1.25,1280,2.04,1610,–
"BisG1-b12-FEAL/DR4-chCTB007-FEAR (bispecific antibody, human IgG1, kappa, Fab-arm exchange of IgG1-b12-FEAL and IgG1-DR4-chCTB007-FEAR) heavy 1: QVQLVQSGAEVKKPGASVKVSCQASGYRFSNFVIHWVRQAPGQRFEWMGWINPYNGNKEFSAKFQDRVTFTADTSANTAYMELRSLRSADTAVYYCARVGPYSWDDSPQDNYYMDVWGKGTTVIVSSASTKGPSVFPLAPSSKSTSGGTAALGCLVKDYFPEPVTVSWNSGALTSGVHTFPAVLQSSGLYSLSSVVTVPSSSLGTQTYICNVNHKPSNTKVDKRVEPKSCDKTHTCPPCPAPEFEGGPSVFLFPPKPKDTLMISRTPEVTCVVVAVSHEDPEVKFNWYVDGVEVHNAKTKPREEQYNSTYRVVSVLTVLHQDWLNGKEYKCKVSNKALPAPIEKTISKAKGQPREPQVYTLPPSREEMTKNQVSLTCLVKGFYPSDIAVEWESNGQPENNYKTTPPVLDSDGSFLLYSKLTVDKSRWQQGNVFSCSVMHEALHNHYTQKSLSLSPG light 1: EIVLTQSPGTLSLSPGERATFSCRSSHSIRSRRVAWYQHKPGQAPRLVIHGVSNRASGISDRFSGSGSGTDFTLTITRVEPEDFALYYCQVYGASSYTFGQGTKLERKRTVAAPSVFIFPPSDEQLKSGTASVVCLLNNFYPREAKVQWKVDNALQSGNSQESVTEQDSKDSTYSLSSTLTLSKADYEKHKVYACEVTHQGLSSPVTKSFNRGEC heavy 2: EVQLQQSGAELVKPGASVKLSCTASGFNIKDTYMHWVKQRPEQGLEWIGRIDPANGNTKYDPKFQGKATITADTSSNTAYLQLSSLTSEDTAVYYCAYYYVSNAWFTYWGQGTLVTVSAASTKGPSVFPLAPSSKSTSGGTAALGCLVKDYFPEPVTVSWNSGALTSGVHTFPAVLQSSGLYSLSSVVTVPSSSLGTQTYICNVNHKPSNTKVDKRVEPKSCDKTHTCPPCPAPEFEGGPSVFLFPPKPKDTLMISRTPEVTCVVVAVSHEDPEVKFNWYVDGVEVHNAKTKPREEQYNSTYRVVSVLTVLHQDWLNGKEYKCKVSNKALPAPIEKTISKAKGQPREPQVYTLPPSREEMTKNQVSLTCLVKGFYPSDIAVEWESNGQPENNYKTTPPVLDSDGSFFLYSRLTVDKSRWQQGNVFSCSVMHEALHNHYTQKSLSLSPG light 2: DIQMTQSPASLSVSVGETVTITCRASENIYSNLEWYQQKQGKSPQLLVYAATNLADGVPSRFSGSGSGTQYSLKINSLQSEDFGSYYCQHFWGTWTFGGGTKLEIKRTVAAPSVFIFPPSDEQLKSGTASVVCLLNNFYPREAKVQWKVDNALQSGNSQESVTEQDSKDSTYSLSSTLTLSKADYEKHKVYACEVTHQGLSSPVTKSFNRGEC",–,1.61,2950,2.14,2550,2.68,2160,–
"BisG1-FAP5-FEAL/b12-FEAR (bispecific antibody, human IgG1, kappa, Fab-arm exchange of IgG1-FAP5-FEAL and IgG1-b12-FEAR) heavy 1: QVQLQQSGAELARPGASVNLSCLASGYTFTNNGINWLKQRTGQGLEWIGEIYPRSTNTLYNEKFKGKATLTADRSSNTAYMELRSLTSEDSAVYFCARTLTAPFAFWGQGTLVTVSSASTKGPSVFPLAPSSKSTSGGTAALGCLVKDYFPEPVTVSWNSGALTSGVHTFPAVLQSSGLYSLSSVVTVPSSSLGTQTYICNVNHKPSNTKVDKRVEPKSCDKTHTCPPCPAPEFEGGPSVFLFPPKPKDTLMISRTPEVTCVVVAVSHEDPEVKFNWYVDGVEVHNAKTKPREEQYNSTYRVVSVLTVLHQDWLNGKEYKCKVSNKALPAPIEKTISKAKGQPREPQVYTLPPSREEMTKNQVSLTCLVKGFYPSDIAVEWESNGQPENNYKTTPPVLDSDGSFLLYSKLTVDKSRWQQGNVFSCSVMHEALHNHYTQKSLSLSPG light 1: QIVLTQSPAIMSASPGELVTMTCSASSGVNFMHWYQQLSGTSPKRWIFDTSKLASGVPARFSGSGSGTSYSLTISSMEAEDAATYYCQQWSFNPPTFGGGTKLEIKRTVAAPSVFIFPPSDEQLKSGTASVVCLLNNFYPREAKVQWKVDNALQSGNSQESVTEQDSKDSTYSLSSTLTLSKADYEKHKVYACEVTHQGLSSPVTKSFNRGEC heavy 2: QVQLVQSGAEVKKPGASVKVSCQASGYRFSNFVIHWVRQAPGQRFEWMGWINPYNGNKEFSAKFQDRVTFTADTSANTAYMELRSLRSADTAVYYCARVGPYSWDDSPQDNYYMDVWGKGTTVIVSSASTKGPSVFPLAPSSKSTSGGTAALGCLVKDYFPEPVTVSWNSGALTSGVHTFPAVLQSSGLYSLSSVVTVPSSSLGTQTYICNVNHKPSNTKVDKRVEPKSCDKTHTCPPCPAPEFEGGPSVFLFPPKPKDTLMISRTPEVTCVVVAVSHEDPEVKFNWYVDGVEVHNAKTKPREEQYNSTYRVVSVLTVLHQDWLNGKEYKCKVSNKALPAPIEKTISKAKGQPREPQVYTLPPSREEMTKNQVSLTCLVKGFYPSDIAVEWESNGQPENNYKTTPPVLDSDGSFFLYSRLTVDKSRWQQGNVFSCSVMHEALHNHYTQKSLSLSPG light 2: EIVLTQSPGTLSLSPGERATFSCRSSHSIRSRRVAWYQHKPGQAPRLVIHGVSNRASGISDRFSGSGSGTDFTLTITRVEPEDFALYYCQVYGASSYTFGQGTKLERKRTVAAPSVFIFPPSDEQLKSGTASVVCLLNNFYPREAKVQWKVDNALQSGNSQESVTEQDSKDSTYSLSSTLTLSKADYEKHKVYACEVTHQGLSSPVTKSFNRGEC",0.58,–,–,–,–,–,–,0.62
